In general, Kd refers to the constant that tells how readily two partners part at equilibrium. Read a high Kd as a looser complex.

The test has as its target human fibronectin (BD Biosciences) (human, UniProt P02751-8 32-2296, limits assumed). The experiment in a line: solid-phase saturation binding ELISA: coated fibronectin at varying concentrations, soluble integrin at 5 ng/µl, detected with LM609. The procedure: FIGS. 3A-D. Wells of a 96-well plate were coated with varying concentrations of G⁹¹⁹⁻¹²⁰⁷, G⁹¹⁹⁻¹⁰¹⁸ and G¹⁰¹⁶⁻¹²⁰⁷ (A) or fibronectin (B). αvβ3 integrin (5 ng/μl) was then added to, allowed to bind for 1 h at 37° C., and binding evaluated by ELISA using LM609 followed by a secondary antibody conjugated to alkaline phosphatase. […] is a competition binding curve. Soluble αvβ3 (5 ng/μl) was added to wells coated with G⁹¹⁹⁻¹²⁰⁷ in the presence of increasing concentrations of fibronectin at 37° C. […] In all studies, absorbance was measured at 405 nm. Each of the graphs is representative of at least three separate experiments.
ELISA Assays. Wells of 96-well non-tissue culture treated plates were coated with protein at varying concentrations for 18 h at 4° C. Each well was rinsed three times and blocked with 1% BSA in PBS for 1 h at 37° C. Soluble integrin heterodimers were diluted in binding buffer (25 mM Tris buffer, […], 1 mM MgCl2, 0.5 mM MnCl2, 0.05% BSA, pH 7.5) and added to each well for a final concentration of 5 ng/μl. After incubating for 90 min at 37° C. wells were rinsed three times in binding buffer and appropriate mouse monoclonal anti-integrin antibody was added for 1 h at 37° C. […] Absorbance at 405 nm was measured with a Vmax plate reader (Molecular Devices, Menlo Park, Calif.). Nonspecific binding was determined by the addition of 10 mM EDTA to binding buffer. […]

human fibronectin (BD Biosciences), sequence (P02751 other isoform, or with tags, fused parts or gaps limits assumed): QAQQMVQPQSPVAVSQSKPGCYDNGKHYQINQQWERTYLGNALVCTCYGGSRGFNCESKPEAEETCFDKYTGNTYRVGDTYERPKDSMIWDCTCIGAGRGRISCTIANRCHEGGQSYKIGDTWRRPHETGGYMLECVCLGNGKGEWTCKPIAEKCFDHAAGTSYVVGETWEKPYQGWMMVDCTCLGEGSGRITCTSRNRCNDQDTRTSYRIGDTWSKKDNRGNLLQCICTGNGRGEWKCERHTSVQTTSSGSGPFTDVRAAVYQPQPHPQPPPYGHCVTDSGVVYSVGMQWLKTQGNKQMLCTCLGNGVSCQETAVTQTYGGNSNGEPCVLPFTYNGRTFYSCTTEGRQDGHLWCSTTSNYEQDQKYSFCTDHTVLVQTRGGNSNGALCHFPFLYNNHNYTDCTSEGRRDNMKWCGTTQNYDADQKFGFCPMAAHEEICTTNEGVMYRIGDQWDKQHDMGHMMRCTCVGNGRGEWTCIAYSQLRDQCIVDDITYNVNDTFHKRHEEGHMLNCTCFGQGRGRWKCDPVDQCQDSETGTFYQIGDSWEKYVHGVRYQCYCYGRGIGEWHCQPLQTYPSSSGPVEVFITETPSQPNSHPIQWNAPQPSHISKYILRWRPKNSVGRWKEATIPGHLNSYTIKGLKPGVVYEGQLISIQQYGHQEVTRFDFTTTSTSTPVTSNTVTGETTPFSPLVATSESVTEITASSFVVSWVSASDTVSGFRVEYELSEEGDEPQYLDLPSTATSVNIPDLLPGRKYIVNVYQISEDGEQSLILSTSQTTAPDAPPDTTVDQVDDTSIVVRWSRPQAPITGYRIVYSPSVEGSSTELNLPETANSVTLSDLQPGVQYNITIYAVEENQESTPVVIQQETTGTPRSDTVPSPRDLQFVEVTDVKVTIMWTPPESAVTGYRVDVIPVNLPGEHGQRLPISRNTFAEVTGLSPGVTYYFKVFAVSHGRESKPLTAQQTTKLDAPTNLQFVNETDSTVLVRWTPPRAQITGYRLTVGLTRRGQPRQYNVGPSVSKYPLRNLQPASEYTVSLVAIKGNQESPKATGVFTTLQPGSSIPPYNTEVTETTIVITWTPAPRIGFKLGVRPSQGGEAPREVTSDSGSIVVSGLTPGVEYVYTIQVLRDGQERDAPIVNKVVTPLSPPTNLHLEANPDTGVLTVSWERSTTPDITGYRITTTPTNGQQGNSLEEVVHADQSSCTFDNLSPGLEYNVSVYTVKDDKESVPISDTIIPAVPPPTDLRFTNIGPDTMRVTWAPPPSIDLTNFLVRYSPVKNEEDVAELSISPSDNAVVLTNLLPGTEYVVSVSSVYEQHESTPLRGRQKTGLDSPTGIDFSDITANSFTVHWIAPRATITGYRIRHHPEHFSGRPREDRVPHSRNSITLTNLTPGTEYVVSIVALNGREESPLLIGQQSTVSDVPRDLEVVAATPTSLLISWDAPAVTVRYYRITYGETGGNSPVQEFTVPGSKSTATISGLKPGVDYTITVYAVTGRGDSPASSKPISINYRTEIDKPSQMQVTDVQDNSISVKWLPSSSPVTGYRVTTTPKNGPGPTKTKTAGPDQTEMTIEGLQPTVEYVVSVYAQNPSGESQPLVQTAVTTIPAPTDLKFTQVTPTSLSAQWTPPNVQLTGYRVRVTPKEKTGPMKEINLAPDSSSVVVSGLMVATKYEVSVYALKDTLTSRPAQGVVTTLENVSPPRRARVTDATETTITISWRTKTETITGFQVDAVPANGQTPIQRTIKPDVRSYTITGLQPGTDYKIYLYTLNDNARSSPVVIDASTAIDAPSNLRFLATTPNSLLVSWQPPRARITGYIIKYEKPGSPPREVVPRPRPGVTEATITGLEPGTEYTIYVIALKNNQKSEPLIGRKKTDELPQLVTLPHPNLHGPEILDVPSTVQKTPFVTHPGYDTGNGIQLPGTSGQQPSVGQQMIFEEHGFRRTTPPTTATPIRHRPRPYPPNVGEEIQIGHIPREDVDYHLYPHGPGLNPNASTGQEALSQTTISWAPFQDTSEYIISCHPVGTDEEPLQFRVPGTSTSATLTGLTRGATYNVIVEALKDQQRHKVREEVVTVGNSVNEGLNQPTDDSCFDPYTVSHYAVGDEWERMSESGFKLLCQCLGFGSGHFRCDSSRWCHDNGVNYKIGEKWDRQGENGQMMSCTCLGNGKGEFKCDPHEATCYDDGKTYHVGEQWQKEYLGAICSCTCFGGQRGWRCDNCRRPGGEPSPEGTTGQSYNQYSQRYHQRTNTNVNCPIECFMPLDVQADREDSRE

B1: soluble αvβ3 integrin heterodimer (Chemicon International) (receptor)
chain 1: FNLDVDSPAEYSGPEGSYFGFAVDFFVPSASSRMFLLVGAPKANTTQPGIVEGGQVLKCDWSSTRRCQPIEFDATGNRDYAKDDPLEFKSHQWFGASVRSKQDKILACAPLYHWRTEMKQEREPVGTCFLQDGTKTVEYAPCRSQDIDADGQGFCQGGFSIDFTKADRVLLGGPGSFYWQGQLISDQVAEIVSKYDPNVYSIKYNNQLATRTAQAIFDDSYLGYSVAVGDFNGDGIDDFVSGVPRAARTLGMVYIYDGKNMSSLYNFTGEQMAAYFGFSVAATDINGDDYADVFIGAPLFMDRGSDGKLQEVGQVSVSLQRASGDFQTTKLNGFEVFARFGSAIAPLGDLDQDGFNDIAIAAPYGGEDKKGIVYIFNGRSTGLNAVPSQILEGQWAARSMPPSFGYSMKGATDIDKNGYPDLIVGAFGVDRAILYRARPVITVNAGLEVYPSILNQDNKTCSLPGTALKVSCFNVRFCLKADGKGVLPRKLNFQVELLLDKLKQKGAIRRALFLYSRSPSHSKNMTISRGGLMQCEELIAYLRDESEFRDKLTPITIFMEYRLDYRTAADTTGLQPILNQFTPANISRQAHILLDCGEDNVCKPKLEVSVDSDQKKIYIGDDNPLTLIVKAQNQGEGAYEAELIVSIPLQADFIGVVRNNEALARLSCAFKTENQTRQVVCDLGNPMKAGTQLLAGLRFSVHQQSEMDTSVKFDLQIQSSNLFDKVSPVVSHKVDLAVLAAVEIRGVSSPDHVFLPIPNWEHKENPETEEDVGPVVQHIYELRNNGPSSFSKAMLHLQWPYKYNNNTLLYILHYDIDGPMNCTSDMEINPLRIKISSLQTTEKNDTVAGQGERDHLITKRDLALSEGDIHTLGCGVAQCLKIVCQVGRLDRGKSAILYVKSLLWTETFMNKENQNHSYSLKSSASFNVIEFPYKNLPIEDITNSTLVTTNVTWGIQPAPMPV
chain 2: GPNICTTRGVSSCQQCLAVSPMCAWCSDEALPLGSPRCDLKENLLKDNCAPESIEFPVSEARVLEDRPLSDKGSGDSSQVTQVSPQRIALRLRPDDSKNFSIQVRQVEDYPVDIYYLMDLSYSMKDDLWSIQNLGTKLATQMRKLTSNLRIGFGAFVDKPVSPYMYISPPEALENPCYDMKTTCLPMFGYKHVLTLTDQVTRFNEEVKKQSVSRNRDAPEGGFDAIMQATVCDEKIGWRNDASHLLVFTTDAKTHIALDGRLAGIVQPNDGQCHVGSDNHYSASTTMDYPSLGLMTEKLSQKNINLIFAVTENVVNLYQNYSELIPGTTVGVLSMDSSNVLQLIVDAYGKIRSKVELEVRDLPEELSLSFNATCLNNEVIPGLKSCMGLKIGDTVSFSIEAKVRGCPQEKEKSFTIKPVGFKDSLIVQVTFDCDCACQAQAEPNSHRCNNGNGTFECGVCRCGPGWLGSQCECSEEDYRPSQQDECSPREGQPVCSQRGECLCGQCVCHSSDFGKITGKYCECDDFSCVRYKGEMCSGHGQCSCGDCLCDSDWTGYYCNCTTRTDTCMSSNGLLCSGRGKCECGSCVCIQPGSYGDTCEKCPTCPDACTFKKECVECKKFDRGALHDENTCNRYCRDEIESVKELKDTGKDAVNCTYKNEDDCVVRFQYYEDSSGKSILYVVEEPECPKGPD
notes: Bought
Turning to B1, the Kd was 15 nM.

(Values after patent US20030103975A1 (published 2003).)
